Source: the supplement of paper PMC10724198
± gives the standard deviation of the averaged measurements.

Tested on: Saccharomyces cerevisiae
Assay: protein stability index of tFT-peptide fusion (C-terminal peptide) (PSI (0-1 scale)); higher = more stable (slower turnover)
Details: genetic background: wild type; temperature: 30 C
Method: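 Multiplexed protein stability (MPS) profiling in S. cerevisiae. Random 12-aa peptides (tFT-X12 library) are fused to the C-terminus of a sfGFP-mCherry tandem fluorescent timer, after mCherry and a GGGS linker. Cells are FACS-sorted into 8 mCherry/sfGFP bins and deep-sequenced. The protein stability index (PSI) is the read-weighted bin average, scaled from 0 (unstable) to 1 (stable). Only peptides with >10 reads are reported; cells were grown at 30 °C in SC-His with glucose.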
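Note: PSI is a weighted mean of sequencing reads over stability bins, variants kept only with over 10 reads, mCherry proximal and sfGFP distal, peptide attached via GGGS linker.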

Row | Sequence | protein stability index
1 | PFSIPPPPPRYP | 0.766 ± 0.0092
2 | FDRWEDCKGTRD | 0.71 ± 0.013
3 | PSRVPSSVPLAP | 0.6864 ± 0.0061
4 | EEVVAQYCITLS | 0.5864 ± 0.0021
5 | LSRLLVYSRGIV | 0.629 ± 0.093
6 | PPRLVPPTPPSS | 0.65 ± 0.064
7 | VRRGGGVGGYGI | 0.734 ± 0.084
8 | PPPAFRLPLPPP | 0.727 ± 0.072
9 | LPRGLRAISCVE | 0.569 ± 0.024
10 | SAGVIVPGRAGR | 0.761 ± 0.082
11 | LVGFGGGGHGVV | 0.696 ± 0.019
12 | APAPPPGVPPSR | 0.702 ± 0.002
13 | PGHPGSCPRRNG | 0.645 ± 0.046
14 | VDCEECSFQFQM | 0.586 ± 0.15
15 | GGWTFGSPPYEI | 0.693 ± 0.015
16 | GLSSGLWAFWWP | 0.749 ± 0.049
17 | ERGLATGRGGWV | 0.733 ± 0.064
18 | VNEEGCDILVRT | 0.757 ± 0.013
19 | WSFGRWGGAGAR | 0.629 ± 0.044
20 | CYPPTRYILGYF | 0.72 ± 0.06
21 | GPVGPGECYDYT | 0.706 ± 0.00044
22 | PPPVPPPPAHTP | 0.681 ± 0.091
23 | EAVVWGTLLCGG | 0.694 ± 0.01
24 | DTSNRRFAYRRS | 0.533 ± 0.12
25 | PPSWTPPSPLPL | 0.727 ± 0.06

Row | Sequence | protein stability index
26 | KNCARIKERKDV | 0.627 ± 0.03
27 | CAPTFSYSLVLS | 0.514 ± 0.036
28 | EVSHLGLVCGHL | 0.653 ± 0.081
29 | VFCFGVRSVFLR | 0.54 ± 0.053
30 | PGPWLGLTPCRT | 0.813 ± 0.14
31 | PSLLSPTPPTTD | 0.711 ± 0.075
32 | RFPRSSPPHRSL | 0.717 ± 0.023
33 | VRGLGFVSWFFL | 0.651 ± 0.025
34 | RTRSVPWEPRYF | 0.687 ± 0.03
35 | WLTCICSSVAPL | 0.698 ± 0.042
36 | LVVCWGCGLGVL | 0.71 ± 0.033
37 | SWRRAASSGGGE | 0.618 ± 0.074
38 | IYSFFHHRFVTV | 0.546 ± 0.0081
39 | LLRVYNQNGERN | 0.734 ± 0.044
40 | VSVVVGLLFVGF | 0.5 ± 0.065
41 | PPRSPPSLPFPP | 0.634 ± 0.0066
42 | LPIKRLPLPTVP | 0.682 ± 0.015
43 | SSLLPLLVPLAP | 0.723 ± 0.076
44 | PFPPYSLPLPSP | 0.759 ± 0.016
45 | PRLSPLPPPSFP | 0.628 ± 0.045
46 | RIQMSGHTNLVG | 0.686 ± 0.024
47 | HRFPPDLYQHGP | 0.645 ± 0.011
48 | GGEGWGAFWGGE | 0.713 ± 0.05
49 | YSFVKEFLNHRY | 0.681 ± 0.036
50 | TGEIREEWRKNI | 0.54 ± 0.03

Row | Sequence | protein stability index
51 | LRFDGKASHSST | 0.6813 ± 0.0014
52 | LASVSNFLASGK | 0.72 ± 0.058
53 | GNRWSLTVTPNR | 0.69 ± 0.028
54 | LHPGPPASPPPL | 0.7127 ± 0.0053
55 | EIAGKGFRLGEW | 0.74 ± 0.052
56 | LLFTFFFLLLFS | 0.527 ± 0.23
57 | ALRRWWCRGGRI | 0.813 ± 0.024
58 | KIKEIIKIKKKR | 0.678 ± 0.009
59 | TLAKSSQNLMCV | 0.744 ± 0.085
60 | KRKKNKKRKQNE | 0.656 ± 0.026
61 | GGCGSAGRGQRG | 0.697 ± 0.062
62 | MVGAWCAGIPGI | 0.668 ± 0.0022
63 | VSGCVMIYGRTV | 0.724 ± 0.027
64 | VGLTNSHTHVRR | 0.767 ± 0.019
65 | RLTSPVLLFPLP | 0.713 ± 0.013
66 | RWGGGKWWRGAE | 0.659 ± 0.018
67 | LFPPFPPFSFSP | 0.798 ± 0.045
68 | LLRLMSPTPFTP | 0.703 ± 0.037
69 | PGPNPASCIPTW | 0.6835 ± 0.0021
70 | PSPPPHGLPRPA | 0.675 ± 0.06
71 | TRPSPHRPSAST | 0.678 ± 0.054
72 | TKKKKKEKGDST | 0.702 ± 0.1
73 | TTRKMGTRAPSL | 0.647 ± 0.095
74 | KKNKNLTYKRMI | 0.716 ± 0.029
75 | KKQKKWQSNTIR | 0.696 ± 0.034

Row | Sequence | protein stability index
76 | KKKKRQNIQNKK | 0.692 ± 0.054
77 | GLSCESLRLFFR | 0.702 ± 0.015
78 | EKLVAERGMYAT | 0.684 ± 0.041
79 | FLPRRLCVRWRG | 0.684 ± 0.065
80 | PLSPPPPSPPRP | 0.645 ± 0.025
81 | CLWLALMSIFLP | 0.539 ± 0.03
82 | RNTRAVREHRNV | 0.726 ± 0.0092
83 | PGRAARLLPRPL | 0.712 ± 0.048
84 | RRAKMSWCCKKY | 0.69 ± 0.0098
85 | PSNLNASLASRV | 0.655 ± 0.015
86 | PLPAAPPILFSL | 0.731 ± 0.038
87 | VGVSEVGRGWAT | 0.71 ± 0.062
88 | FKWSGGGRGVGP | 0.679 ± 0.08
89 | WGCVGVVGLFSG | 0.656 ± 0.047
90 | ESFFHIKPVLYI | 0.647 ± 0.058
91 | TVLSSQKPNNDR | 0.652 ± 0.023
92 | GRVAGNERGGGR | 0.6083 ± 0.006
93 | RESPYSRSRCLL | 0.733 ± 0.17
94 | SGGVWWGRGRVS | 0.727 ± 0.058
95 | GLVVWFFQSPHF | 0.597 ± 0.036
96 | IKPVETEKRECK | 0.668 ± 0.094
97 | RAWPLLPTCPPP | 0.7 ± 0.019
98 | PLASLPALHFSL | 0.678 ± 0.025
99 | PHRPPPHHSLPP | 0.6976 ± 0.0013
100 | PRKTRSTTTRKS | 0.593 ± 0.038

Row | Sequence | protein stability index
101 | ASSLSPSTFFCL | 0.642 ± 0.015
102 | LVLPTSRPRCFI | 0.661 ± 0.027
103 | IGVNEDSAIVCM | 0.562 ± 0.024
104 | PVSPCSQRGIFV | 0.692 ± 0.01
105 | GWPVGSLKTPCR | 0.726 ± 0.046
106 | GGMMRGHRHRCW | 0.812 ± 0.0095
107 | SNQKGQIYYEPS | 0.706 ± 0.08
108 | RGTDSRERIKRR | 0.721 ± 0.06
109 | GAPPLAPTPPPP | 0.745 ± 0.024
110 | EIVTTEINKKTN | 0.7115 ± 0.004
111 | GVLGLDLSVVGG | 0.716 ± 0.035
112 | QESKRKDMKERN | 0.75 ± 0.049
113 | PHALSSFLSLFL | 0.791 ± 0.017
114 | PPVPPPHASPAP | 0.709 ± 0.05
115 | APLTYFKPPTPT | 0.666 ± 0.11
116 | FLFFLLLYVFFC | 0.498 ± 0.048
117 | PHPLPPPTPSVP | 0.677 ± 0.018
118 | SLPPRPCPSHLH | 0.786 ± 0.081
119 | LRSRVGYVMPVR | 0.5988 ± 0.0057
120 | WAGSGCECTGGG | 0.705 ± 0.0031
121 | PTCALPKLLTHP | 0.796 ± 0.021
122 | WHEHGGVGTYFI | 0.6743 ± 0.0043
123 | SPPPPTPPLSPP | 0.669 ± 0.0051
124 | LVRCDSSSPLPP | 0.6863 ± 0.0042
125 | TCFPDLLVLPAR | 0.7008 ± 0.0022

Row | Sequence | protein stability index
126 | KRTKKKTKDERK | 0.644 ± 0.044
127 | RRCRLNPPIDST | 0.683 ± 0.088
128 | WGVGWGMVEGWR | 0.701 ± 0.019
129 | RSFVSRGSILWF | 0.723 ± 0.13
130 | PHTHHAPNTRNQ | 0.6797 ± 0.0036
131 | GAEKEPEPRRLA | 0.699 ± 0.06
132 | GGRGGRSGTEGE | 0.6763 ± 0.0011
133 | EGVWIVMFCGLL | 0.504 ± 0.11
134 | EPPGWGRGTAQG | 0.623 ± 0.07
135 | RRPPRVYLQLSI | 0.67 ± 0.066
136 | AAVRCVAEGGAP | 0.637 ± 0.036
137 | CLPTGMSKFPDF | 0.683 ± 0.029
138 | GGMAFSRPSFNG | 0.729 ± 0.032
139 | EVSSGGQRVGRS | 0.763 ± 0.018
140 | IHDGKKEGKSQK | 0.695 ± 0.017
141 | GVSCGWVAHARW | 0.694 ± 0.061
142 | KKKEHQKIKNER | 0.675 ± 0.032
143 | EEGGTRGASAVV | 0.7134 ± 0.0024
144 | WEWFKWRDHNRY | 0.803 ± 0.037
145 | VISKIAIKAKER | 0.665 ± 0.047
146 | GGGGFGFGWSMV | 0.709 ± 0.059
147 | LRKNRKHINKKI | 0.626 ± 0.034
148 | LIGALSDCGFLG | 0.683 ± 0.031
149 | VEYGRLPRGEEG | 0.645 ± 0.13
150 | LGWGRWFWGVRG | 0.653 ± 0.026

Row | Sequence | protein stability index
151 | SPPPTSHPSAPP | 0.638 ± 0.056
152 | LALHWVESRFKH | 0.71 ± 0.06
153 | PVASSPLLPSPS | 0.649 ± 0.061
154 | VVALHYNYFSRL | 0.613 ± 0.09
155 | VCCMFTAFGVCG | 0.604 ± 0.022
156 | PQHFARSITPPP | 0.64 ± 0.097
157 | RGKIKKTRKDNK | 0.598 ± 0.021
158 | DGRGPVSPTSLR | 0.662 ± 0.036
159 | GSFLSAQRPCPV | 0.661 ± 0.023
160 | EVAVELIGAPGL | 0.699 ± 0.1
161 | GPSQLRLSSCSF | 0.716 ± 0.041
162 | PPPHATPAPSPL | 0.706 ± 0.045
163 | LCHCLSLLFSFL | 0.581 ± 0.015
164 | PLFPPPPLRSWP | 0.766 ± 0.089
165 | AMVATAYINPHE | 0.712 ± 0.037
166 | AARSCRCSSLIG | 0.774 ± 0.0035
167 | RGVGAGGLEGIG | 0.535 ± 0.011
168 | APPPPRPLLPSL | 0.723 ± 0.047
169 | PPGPTSSPTKTH | 0.729 ± 0.056
170 | PVVFFSYPLPSF | 0.699 ± 0.019
171 | GETGGRSQDARI | 0.744 ± 0.088
172 | HRFPPPRPPPFS | 0.729 ± 0.047
173 | LSVFCALPFVAL | 0.7026 ± 0.0048
174 | TPSPHPRYRASH | 0.703 ± 0.026
175 | RSYRLRTSRADI | 0.683 ± 0.1

Row | Sequence | protein stability index
176 | HHAHRLPTLATS | 0.693 ± 0.074
177 | ALPYPPRFPHCS | 0.645 ± 0.019
178 | QHFIRGWAWPTV | 0.729 ± 0.034
179 | PRAPQNEHQTKG | 0.667 ± 0.059
180 | VSSCLHDYSAIY | 0.744 ± 0.029
181 | PPSPPSPPPSAP | 0.704 ± 0.0093
182 | PQPPLYPPPSLP | 0.675 ± 0.036
183 | GLAIRRDWLGWV | 0.745 ± 0.056
184 | PPPPLSTVPPPP | 0.811 ± 0.019
185 | PLPFPSSPPPPP | 0.6723 ± 0.0018
186 | GVECGSVCGGGG | 0.651 ± 0.013
187 | PLPPPPPTSLPP | 0.705 ± 0.043
188 | KVCESRQVEYFR | 0.634 ± 0.088
189 | KKKKKKRYRKKI | 0.605 ± 0.024
190 | AGSAAGGAWSGG | 0.695 ± 0.019
191 | RNKKKKNKNEKE | 0.705 ± 0.0073
192 | LLGRIASCKIWL | 0.657 ± 0.019
193 | ERGACPGLRQLN | 0.649 ± 0.015
194 | HPSREPLLLCYH | 0.618 ± 0.067
195 | FSPDSDFTRCAP | 0.701 ± 0.002
196 | VARVVGGVGGGW | 0.6553 ± 0.006
